Reference: PMC10684826
Like-named read-outs stand apart in the source and are kept apart here.

Columns and labels:
Test in all cases: EMSA
SisSSB deltaC53 = molecular target: T1, SisSSB deltaC53 (Saccharolobus islandicus REY15A, UniProt F0NBA9 1-95)
T1 sequence: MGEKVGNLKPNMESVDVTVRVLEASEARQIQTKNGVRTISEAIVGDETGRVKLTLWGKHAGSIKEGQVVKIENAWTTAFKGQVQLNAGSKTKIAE

SisSSB deltaC29 = molecular target: T2, SisSSB deltaC29 (Saccharolobus islandicus REY15A, UniProt F0NBA9 1-119)
T2 sequence: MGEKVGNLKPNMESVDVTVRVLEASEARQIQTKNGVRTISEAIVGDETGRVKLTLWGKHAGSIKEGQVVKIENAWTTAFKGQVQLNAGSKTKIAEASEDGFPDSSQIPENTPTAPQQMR

SheSSB [1] = molecular target: T3, SheSSB (Staphylothermus hellenicus DSM 12710, UniProt D7D8N7 1-151)
T3 sequence: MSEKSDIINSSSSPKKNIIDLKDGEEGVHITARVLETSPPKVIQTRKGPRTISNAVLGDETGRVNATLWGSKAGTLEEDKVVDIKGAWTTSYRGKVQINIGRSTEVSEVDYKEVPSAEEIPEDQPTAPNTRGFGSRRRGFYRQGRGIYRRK

AhoSSB [2] = molecular target: T4, AhoSSB (Acidianus hospitalis W1, UniProt F4B912 1-142)
T4 sequence: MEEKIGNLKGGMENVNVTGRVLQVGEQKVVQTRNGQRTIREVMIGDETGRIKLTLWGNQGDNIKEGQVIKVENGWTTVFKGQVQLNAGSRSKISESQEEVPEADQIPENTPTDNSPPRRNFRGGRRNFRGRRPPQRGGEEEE

SacSSB [3] = molecular target: T5, SacSSB (Sulfolobus acidocaldarius DSM 639, UniProt Q4JA43 1-146)
T5 sequence: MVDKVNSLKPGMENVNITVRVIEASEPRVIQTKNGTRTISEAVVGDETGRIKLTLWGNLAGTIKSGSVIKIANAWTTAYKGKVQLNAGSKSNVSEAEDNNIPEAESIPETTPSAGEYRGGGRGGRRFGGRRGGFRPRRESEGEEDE

EcoSSB = EcoSSB (Escherichia coli, UniProt P0AGE0 1-178)
SheSSB [4] = molecular target: T3, SheSSB; remark: listed apart in the source
AhoSSB [5] = molecular target: T4, AhoSSB; remark: listed apart in the source
SacSSB [6] = molecular target: T5, SacSSB; remark: listed apart in the source

Measured: binding result

EcoSSB, sequence (P0AGE0 whole entry): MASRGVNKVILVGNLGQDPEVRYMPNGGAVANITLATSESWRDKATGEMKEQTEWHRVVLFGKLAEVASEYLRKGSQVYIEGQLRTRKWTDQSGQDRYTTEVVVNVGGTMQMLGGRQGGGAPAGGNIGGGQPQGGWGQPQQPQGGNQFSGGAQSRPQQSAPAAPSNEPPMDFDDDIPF

AGGGTTCTTTGTGGCGGCGTCATCTGTGCTTCCCTATCCA (ssDNA) [Fam-ssDNA 40 nt]
binds: SisSSB deltaC53 | SisSSB deltaC29 | SheSSB [1] | AhoSSB [2] | SacSSB [3] | EcoSSB

AGGGUUCUUUGUGGCGGCGUCAUCUGUGCUUCCCUAUCCA (ssRNA) [Fam-ssRNA 40 nt]
binds: SisSSB deltaC53 | SisSSB deltaC29 | SheSSB [4] | AhoSSB [5] | SacSSB [6]
